Sequences and labels used below:
B1: Fmoc-added Human GPR8L (1-23) (peptide)
peptide: XYKHVASPRYHTVGRAAGLLMGL
modifications: N-terminal Fmoc (N-9-fluorenylmethoxycarbonyl) on Trp 1
notes: also called Fmoc-hGPR8L(1-23); Human GPR8 ligand (1-23) modified by Fmoc

No end group written: not given here. *: point of attachment. 125I = [125I]* Bounds are passed on as bounds.

Results on eight molecules are retold here after US20050124539A1 (Takeda / Millennium, published 2005).

As a reminder, the IC50 is the concentration needed to halve the response being measured.

T1 sequence (P48146 whole entry): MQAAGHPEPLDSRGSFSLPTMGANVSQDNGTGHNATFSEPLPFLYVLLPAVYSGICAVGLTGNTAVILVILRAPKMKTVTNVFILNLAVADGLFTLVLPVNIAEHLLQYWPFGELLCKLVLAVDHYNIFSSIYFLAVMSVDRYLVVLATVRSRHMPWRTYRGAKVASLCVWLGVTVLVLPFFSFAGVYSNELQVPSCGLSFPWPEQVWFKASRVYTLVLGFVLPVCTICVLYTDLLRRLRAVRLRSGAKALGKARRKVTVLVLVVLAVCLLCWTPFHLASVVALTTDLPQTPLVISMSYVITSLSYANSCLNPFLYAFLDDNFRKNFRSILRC

One experiment has as its target T1, Human GPR8 receptor protein (human, UniProt P48146 1-333).
T1 construct: Full-length receptor expressed in CHO dhfr- cells (CHO/GPR8)
Briefly: competition with [125I-Tyr10]-hGPR8L(1-23), membrane fraction of GPR8 expressing CHO cells. The procedure:
(§1) Cell membrane fraction prepared from Human GPR8 expressing cells was diluted to various concentration with assay buffer (25 mM Tris-HCl, 5 mM EDTA, 0.05% CHAPS (3-[(3-Cholamidopropyl) Dimethyl-Ammonio]-1-Propanesulfonate), 0.1% BSA, 0.25 mM PMSF, 1 μg/ml Pepstatin, 20 μg/ml Leupeptin, pH7.4), and 200 μl each of the diluent was dispensed into polypropilene test tube (Falcon 2053). In order to determine an amount of maximum binding (TB), […] of DMSO and 2 μl of 7 nM [¹²⁵I-Tyr²]-hGPR8L(1-23) or [¹²⁵I-Tyr¹⁰]-hGPR8L(1-23) were added to the membrane fraction solution. Further, in order to determine a non-specific binding (NSB), 2 μt of 100 μM hGPR8L(1-23)/DMSO solution and 2 μl of 7 nM [¹²⁵I]-Tyr²]-hGPR8L(1-23) or [¹²⁵I-Tyr¹⁰]-hGPR8L(1-23) were added to the membrane fraction solution. The reaction was done at 25° C. for 60 minutes, and the reaction mixture was filtered by suction filtration using Whatman glassfilter (GF-F) treated with polyethyleneimine. After filtration, a radioactivity remaining on the filter was counted using γ-counter, and an amount of specific binding (SB) was estimated by subtracting an amount of non-specific binding from an amount of maximum binding. Since the specific binding in the case where [¹²⁵I-Tyr¹⁰]-hGPR8L(1-23) was used, was twice as much as that in the case where [¹²⁵1-Tyr²]-hGPR8L(1-23) was used, in practice, [¹²⁵I-Tyr¹⁰]-hGPR8L(1-23) was used in the assay. When the concentration of membrane fraction was changed, a specific binding of [¹²⁵I-Tyr¹⁰]-hGPR8L(1-23) was perceived depending on the concentration of membrane fraction.
A receptor binding activity of human- and porcine-homologue derivatives of GPR8 ligand peptide, wherein the synthesis method has been described in the specification, was measured using a membrane fraction of GPR8 expressing CHO cells and [¹²⁵-Tyr¹⁰]-hGPR8L(1-23) by the method described in Reference Example 43.
HVASPRYHTVGRAAGLLMGL (also called hGPR8L(4-23)) [Human GPR8 ligand (4-23)] showed an IC50 of 1400 nM.

For B1, the IC50 is 0.2 nM.

In turn, WYKHVASPRYHTVGRAAGL (also called hGPR8L(1-19)) [Human GPR8 ligand (1-19)] showed an IC50 of 100 nM.

For the molecule YKHVASPRYHTVGRAAGLLMGL (also called hGPR8L(2-23)) [Human GPR8 ligand (2-23)], the IC50 came to 160 nM.

For RYHTVGRAAGLLMGL (also called hGPR8L(9-23)) [Human GPR8 ligand (9-23)], the half-maximal inhibitory concentration (IC50) stood at 1300 nM.

XYKHVASPRYHTVGRAAGLLMGL (D-Trp at position 1, also called [D-Trp^1]-hGPR8L(1-23)) [[D-Trp^1]-Human GPR8 ligand (1-23)]: the IC50 amounted to 0.82 nM.

WYKHVASPRYHTVGRAAGLL (also called hGPR8L(1-20)) [Human GPR8 ligand (1-20)] displayed an IC50 of 0.2 nM.

The target in another experiment is T2, TGR26, rat-derived G protein-coupled receptor protein (rat, UniProt Q56UD9 1-329).
T2 construct: Expressed in CHO dhfr- cells from pAK-rGPR7; also called rat TGR26; TGR26 receptor
T2 sequence: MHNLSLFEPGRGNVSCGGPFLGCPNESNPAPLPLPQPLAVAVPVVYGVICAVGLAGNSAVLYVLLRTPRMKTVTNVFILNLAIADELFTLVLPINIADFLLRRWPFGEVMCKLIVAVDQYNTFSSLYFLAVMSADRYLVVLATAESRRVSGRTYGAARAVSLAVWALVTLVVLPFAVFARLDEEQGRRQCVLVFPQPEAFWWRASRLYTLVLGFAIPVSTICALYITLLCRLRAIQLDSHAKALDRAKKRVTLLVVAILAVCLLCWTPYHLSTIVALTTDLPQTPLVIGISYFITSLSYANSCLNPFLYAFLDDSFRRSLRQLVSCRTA
Description: competition with [125I-Tyr10]-hGPR8L(1-23), membrane fraction of TGR26 expressing CHO cells. The procedure: Cell membrane fraction prepared from TGR26 expressing cells was diluted to various concentration with assay buffer (25 mM Tris-HCl, 5 mM EDTA, 0.05% CHAPS (3-[(3-Cholamidopropyl) Dimethyl-Ammonio]-1-Propanesulfonate), 0.1% BSA, 0.5 mM PMSF, 1 μg/ml Pepstatin, 20 μg/ml Leupeptin, 4 μg/ml E-64, pH7.4), and 200 μl each of the diluent was dispensed into polypropilene test tube (Falcon 2053). In order to determine an amount of maximum binding, 2 μl of DMSO and 2 μl of 7 nM [¹²⁵-Tyr¹⁰]-hGPR8L(1-23) were added to the membrane fraction solution. Further, in order to determine a non-specific binding, 2 μl of 100 μM hGPR8L(1-23)/DMSO solution and 2 μl of 7 nM [¹²⁵I]-Tyr¹⁰]-hGPR8L(1-23) were added to the membrane fraction solution. The reaction was done at 25° C. for 75 minutes, and the reaction mixture was filtered by suction filtration using Whatman glassfilter (GF-F) treated with polyethyleneimine. In addition, the filter was washed twice with 1.5 ml of washing buffer (25 mM Tris-HCl, 5 mM EDTA, 0.05% CHAPS, 0.1% BSA, pH7.4). After filtration, a radioactivity remaining on the filter was counted using γ-counter, and an amount of specific binding was estimated by subtracting an amount of non-specific binding from an amount of maximum binding.
A receptor binding activity of human- and porcine-homologue derivatives of GPR8 ligand peptide obtained in the reference examples was measured using a membrane fraction of TGR26 expressing CHO cells and [¹²⁵I-Tyr¹⁰]-hGPR8L(1-23) by the method described in Reference Example 73.
As for HVASPRYHTVGRAAGLLMGL (also called hGPR8L(4-23)) [Human GPR8 ligand (4-23)], the IC50 was 2000 nM.

In the case of B1, the IC50 came out at 0.23 nM.

With WYKHVASPRYHTVGRAAGL (also called hGPR8L(1-19)) [Human GPR8 ligand (1-19)], the half-inhibitory concentration (IC50) is 9.9 nM.

YKHVASPRYHTVGRAAGLLMGL (also called hGPR8L(2-23)) [Human GPR8 ligand (2-23)] yielded an IC50 of 240 nM.

Turning to RYHTVGRAAGLLMGL (also called hGPR8L(9-23)) [Human GPR8 ligand (9-23)], the IC50 worked out at 2500 nM. Against the preceding molecule, the IC50 is about 10-fold higher.

The molecule XYKHVASPRYHTVGRAAGLLMGL (D-Trp at position 1, also called [D-Trp^1]-hGPR8L(1-23)) [[D-Trp^1]-Human GPR8 ligand (1-23)] displayed an IC50 of 1.3 nM.

With WYKHVASPRYHTVGRAAGLL (also called hGPR8L(1-20)) [Human GPR8 ligand (1-20)], the IC50 turned out to be 0.17 nM.

The target of a further experiment is T1, Human GPR8 receptor protein. Briefly: cell-based or functional assay.
Regarding HVASPRYHTVGRAAGLLMGL (also called hGPR8L(4-23)) [Human GPR8 ligand (4-23)], the “Promoting activity to GTPγS binding (EC50 nM)” value (shortened to “Promoting activity”) amounted to 6700 nM.

Consider B1, for which the “Promoting activity” value was determined as 240 nM.

With WYKHVASPRYHTVGRAAGL (also called hGPR8L(1-19)) [Human GPR8 ligand (1-19)], the “Promoting activity” value came to 1000 nM.

With YKHVASPRYHTVGRAAGLLMGL (also called hGPR8L(2-23)) [Human GPR8 ligand (2-23)], the “Promoting activity” value came to 3900 nM.

As to RYHTVGRAAGLLMGL (also called hGPR8L(9-23)) [Human GPR8 ligand (9-23)], the “Promoting activity” value stood at 4200 nM.

In the case of XYKHVASPRYHTVGRAAGLLMGL (D-Trp at position 1, also called [D-Trp^1]-hGPR8L(1-23)) [[D-Trp^1]-Human GPR8 ligand (1-23)], the “Promoting activity” value stood at 7.1 nM.

With WYKHVASPRYHTVGRAAGLL (also called hGPR8L(1-20)) [Human GPR8 ligand (1-20)], the “Promoting activity” value was 0.86 nM.

A further experiment has as its target T3, Human GPR7 (human, UniProt P48145 1-328).
T3 sequence: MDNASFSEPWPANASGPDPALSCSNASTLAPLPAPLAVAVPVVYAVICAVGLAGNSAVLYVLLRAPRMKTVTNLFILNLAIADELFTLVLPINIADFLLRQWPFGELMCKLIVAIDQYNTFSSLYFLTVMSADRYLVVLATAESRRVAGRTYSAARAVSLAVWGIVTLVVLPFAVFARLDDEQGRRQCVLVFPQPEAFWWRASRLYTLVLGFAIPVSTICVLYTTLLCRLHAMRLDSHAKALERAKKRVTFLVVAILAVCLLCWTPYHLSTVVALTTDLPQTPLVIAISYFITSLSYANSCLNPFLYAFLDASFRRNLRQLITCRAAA
Description: cell-based or functional assay.
In the case of HVASPRYHTVGRAAGLLMGL (also called hGPR8L(4-23)) [Human GPR8 ligand (4-23)], the “Promoting activity” value is greater than 10000 nM.

As to B1, the “Promoting activity” value was found to be 6.6 nM.

Consider WYKHVASPRYHTVGRAAGL (also called hGPR8L(1-19)) [Human GPR8 ligand (1-19)], for which the “Promoting activity” value stood at 84 nM.

As for YKHVASPRYHTVGRAAGLLMGL (also called hGPR8L(2-23)) [Human GPR8 ligand (2-23)], the “Promoting activity” value was 7410 nM.

Consider RYHTVGRAAGLLMGL (also called hGPR8L(9-23)) [Human GPR8 ligand (9-23)], for which the “Promoting activity” value was greater than 10000 nM.

For XYKHVASPRYHTVGRAAGLLMGL (D-Trp at position 1, also called [D-Trp^1]-hGPR8L(1-23)) [[D-Trp^1]-Human GPR8 ligand (1-23)], the “Promoting activity” value was 2.3 nM.

Regarding WYKHVASPRYHTVGRAAGLL (also called hGPR8L(1-20)) [Human GPR8 ligand (1-20)], the “Promoting activity” value was 0.88 nM.

A further experiment deals with T1, Human GPR8 receptor protein. Briefly: radioligand filter binding, membrane fraction of Human GPR8 expressing CHO cells. The procedure:
Using [¹²⁵I]-labeled hGPR8L(1-23) prepared as described in Reference Example 42 and a cell membrane fraction prepared from Human GPR8 expressing cells by the similar manner as described in Reference Example 6, a receptor binding assay was carried out as follows.
as §1, with “The reaction was done at 25° C. for 60 minutes, and the reaction mixture was filtered by suction filtration using Whatman glassfilter (GF-F) treated with polyethyleneimine.” left out, “Since the specific binding in the case where [¹²⁵I-Tyr¹⁰]-hGPR8L(1-23) was used, was twice as much as that in the case where [¹²⁵1-Tyr²]-hGPR8L(1-23) was used, in practice, [¹²⁵I-Tyr¹⁰]-hGPR8L(1-23) was used in the assay. When the concentration of membrane fraction was changed, a specific binding of [¹²⁵I-Tyr¹⁰]-hGPR8L(1-23) was perceived depending on the concentration of membrane fraction.” left out
WY(125I)KHVASPRYHTVGRAAGLLMGL [[^125I-Tyr^2]-hGPR8L(1-23)]: the binding result is recorded as “binds”.

The target of the next experiment is T3, Human GPR7. Briefly: competition with [125I-Tyr10]-hGPR8L(1-23), membrane fraction of GPR7 expressing CHO cells.
HVASPRYHTVGRAAGLLMGL (also called hGPR8L(4-23)) [Human GPR8 ligand (4-23)] registered a 50% inhibitory concentration (IC50) of 1200 nM.

Molecule B1 returned an IC50 of 0.14 nM.

Molecule WYKHVASPRYHTVGRAAGL (also called hGPR8L(1-19)) [Human GPR8 ligand (1-19)] had an IC50 of 1.7 nM. This IC50 is about 12-fold higher than that of the molecule before.

Take YKHVASPRYHTVGRAAGLLMGL (also called hGPR8L(2-23)) [Human GPR8 ligand (2-23)]: the IC50 stood at 140 nM.

Regarding RYHTVGRAAGLLMGL (also called hGPR8L(9-23)) [Human GPR8 ligand (9-23)], the IC50 worked out at 2200 nM.

Turning to XYKHVASPRYHTVGRAAGLLMGL (D-Trp at position 1, also called [D-Trp^1]-hGPR8L(1-23)) [[D-Trp^1]-Human GPR8 ligand (1-23)], the IC50 came to 0.63 nM.

WYKHVASPRYHTVGRAAGLL (also called hGPR8L(1-20)) [Human GPR8 ligand (1-20)] gave an IC50 of 0.094 nM.
